The series is described as follows: yeast display, Sf9 membrane polyspecificity reagent, FACS + sequencing; frameworks hold sequencing errors. The procedure, abridged:
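Genes from sorted yeast were amplified by colony PCR, read by MiSeq 2 × 250 sequencing and filtered on CDR length. These cells carried a synthetic nanobody library in Saccharomyces cerevisiae BJ5465 and were sorted by FACS into low and high (top ~1%) gates on anti-HA and streptavidin fluorescence. Polyreactivity is labelled according to the gate of origin.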
Turning to “QVHLVESGGGLVQAGGSLRLSCAASGSTLVYNDMGWYRQAPGKEREFVAAIRSNDGSTYYADSVKGRFTISRDNAKNTVYLQMNSLKPEDTAVYYCAAERGYPKFGYWGQGTQVTVSS”, the “polyreactivity (PSR sort gate)” value is “low polyreactivity”. As for “QVHLVESGGGLVQAGGSLRLSCAASGSTLYRYAMGWYRQAPGKERELVATITRSGGSTYYADSVKGRFTISRDNAKNTVYLQINSLKPEDTAVYYCDAYRKVGGFSRGDYWGQGTKVTVSS”, the entry is “high polyreactivity”; as for “QVHLVESGGGLVQAGGSLRLSCAASGSTSDNTMGWYRQAPGKERELVAAISQRGVSTYYADSVKGRFTISRDNAKNTVYLQMNSLKPEDTAVYYCNALLSAKFDYWGQGTQVTVSS”, “low polyreactivity”. Regarding “QVHLVESGGGLVQAGGSLRLSCAASGYIFGYYAMGWYRQAPGKERELVAAISQGGGDTYYADSVKGRFTISRDNAKYTVYLQMNSLKPEDTAVYYCAADYEQSYVLTGTFKYDYWGQGTQVTVSS”, the “polyreactivity (PSR sort gate)” value is recorded as “low polyreactivity”. As to “QVHLVESGGGLVQAGGSLRLSCAASGYIFRWYAMGWYRQAPGKEREFVASISKRGGSTYYADSVKGRFTISRDNAKNTVYLQMNSLKPEDTAVYYCARTPSPLLYSYDYWGQGTQVTVSS”, the “polyreactivity (PSR sort gate)” value is listed as “high polyreactivity”. The entry for “QVHLVESGGGLVQAGGSLRLSCAASGYIFTIYAMGWYRQAPGKERELVAAITSGGSTSYADSVKGRFTISRDNAKNTVYLQMNSLKPVDTAVYYCAAASVYAGLYYLWVYTGYDYWGQGTQVTVSS” is “high polyreactivity”. Regarding “QVHLVESGGGLVQAGGSLRLSCAASGYIFYAIAMGWYRQAPGKERELVAAISTGGNTNYADSVKGRFTISRDNAKNTVYVQMNSLKPEDTAVYYCAVRSTGPYRWRTPVTRDYWGQGTQVTVSS”, the “polyreactivity (PSR sort gate)” value is “low polyreactivity”.

With “QVHLVESGGGLVQAGGSLRLSCAASVRTYRGNAMGWYRQAPGKEREMVAAITYRTGSTYYADSVKGRFTISRDNAKNTVYLLMNSLKPEDTAVYYCAAVSGRSYDKYYYWGQGTQVTVSS”, the “polyreactivity (PSR sort gate)” value is “high polyreactivity”. Consider “QVHLVESGGGLVQAGGSLRLSCAATGRTLTCNARGWYRQAPGKERELVPAISRSGGGSTYYADSVKGRFTISRDTAKNTVYIQMISLKPEDTAVYYCAARYRVHYYWYPMGYWGQGTQVTVSS”, for which the “polyreactivity (PSR sort gate)” value is “high polyreactivity”. The entry for “QVHLVESGGGLVQAGGSLRLSCAAYGIIFNSNAMGWYRQAPGKERELVAAISVSGGSTYYADSVKGRFTISRDNAKNTVYLQMNSLKPEDTAVYFCAARTGRGDRTRRYYYWGQGTKVTVSS” is “high polyreactivity”; for “QVHLVESGGGLVQAGGSLRLSCAAYGRNFQYNAMGWDRQAPGKEREFVASISGSGGRTYYADSVKGRFTISRDNAKNTVYLQMNSLKPEDTAVYYCNASLLFPLLYGPESGEFDYWGQGSQVTVSS” it is “low polyreactivity”. Take “QVHLVESGGGLVQAGGSLRLSCAAYGSTFTWYARGWYRQAPGKERELVADISYGGGSTYYADSVKGRFTISRDNAKNTVYLQMNSLKPEDTAVYYCAAESIPYYRYDYWGQGSQVTVSS”: the “polyreactivity (PSR sort gate)” value is “low polyreactivity”.

Turning to “QVHLVESGGGLVQAGGSLRLSCADSGSTFKNYAMGWYRPAPGKERELVATITKRGGSTYYADSVKGRFTISRDNAKNTVYLQMKSMKPEDTAVYYCAAAPNGPRYRDRFDYWGQGNQVTVSS”, the “polyreactivity (PSR sort gate)” value is on record as “high polyreactivity”.

Take “QVHLVESGGGLVQAGGSLRLSCAPSGSIFRNYAMGWYRQAPGKESELVATISGRGGRTYYEDSVKGRFTISRDNAKNTVYLQMNSLKPEDTAVYYCAARGTLGKYSTASVYSGQGTQVTVSS”: the “polyreactivity (PSR sort gate)” value was “high polyreactivity”. “QVHLVESGGGLVQAGGSLRLSCASSGTTFRYYAMGCYRQAPGKERELVAAITYRGGRTYYADSVKGRFTISRDNPKNTVYLQMNSLKPEDTAVYYCAGKSGGDSMDSWGQGTQVTVSS”: the “polyreactivity (PSR sort gate)” value is listed as “low polyreactivity”.

With “QVHLVESGGGLVQAGGSLRLSCDASGLTFANNAMGWYRQAPGKEREFVAAIRGSGGSTYYADSVKGRFTISRDNAKNTVYLQMNSLKPEDTAVYYCNAGYLRKYHGWFQVKFDYWGQGTQVTVSS”, the “polyreactivity (PSR sort gate)” value is on record as “low polyreactivity”. As to “QVHLVESGGGLVQAGGSLRLSCDASGSTFGYYAMGWYRQAPGKERELVAAISWNGVSTYYADSVKGRFTISRDNAKNTVYLQMNCLKPEDTAVYYCATVGLRRLFVNPGTLMDYWGEGTQVTVSS”, the “polyreactivity (PSR sort gate)” value is “low polyreactivity”. Regarding “QVHLVESGGGLVQAGGSLRLSCPASGRTLDSNAMGWYRQAPGKERELVAAISSAGSTNYADSVKGRFTISRDNAKNTVYLQMNSLKPEDTAVYYCAADLIGSHDYWGQGTQVTVSS”, the “polyreactivity (PSR sort gate)” value is on record as “low polyreactivity”. Turning to “QVHLVESGGGLVQAGGSLRLSCYASGRIFRYYAMGWYRQPPGKERELVAVINCSGGSTYYAVSVKGRFTISRDNAKNSVYLQMNSLKPEDTAVYYCYVYSVYPQFNYWGQGTQVTVSS”, the “polyreactivity (PSR sort gate)” value was “high polyreactivity”. Consider “QVHLVESGGGLVQAGGSLRLSGAASGFTFYRYAMGWSRQAPGKERELVAAITSGAITYYADSVKGRFTISRDNAKNTVYLQMNSLKPEETAVYYCNAVYRVAAIVRYDYWGQGTQVTVSS”, for which the “polyreactivity (PSR sort gate)” value is “high polyreactivity”.

As for “QVHLVESGGGLVQAGGSLRLSSAASGRIFDRYAMGWYRQAPGKERELVAAITSRADRTYYADSLKGRFTISRDNAKNTVYLQMNSLKPEDTAVYYCNTDKKYRHRYGGILDYWGQGTEVTVSS”, the “polyreactivity (PSR sort gate)” value was “high polyreactivity”. Consider “QVHLVESGGGLVQAGGSLRLSSAASGRIFYNYTMRWYRQAPGKERELVAAITRSGSSTYADSVKGRFTISRDNGKNTVYLQMNSLKQEDTAVYYCAGEYIRRYDYWGQGTQETVSS”, for which the “polyreactivity (PSR sort gate)” value is “low polyreactivity”. Consider “QVHLVESGGGLVQAGGSLRLSSAPSGSTFDAYDMGWYRQAPGKESELVAAITSGGSTNYADSVKGRFTISRDNAKNTVYLQMNSLKPEDTAVYYCAASPYRGFVSRYGYWGQGTQVTLSS”, for which the “polyreactivity (PSR sort gate)” value was “low polyreactivity”. As for “QVHLVESGGGLVQAGGSLRLTCAASGFTFHQYAMGWYRQAPGKERELVAAISQSGDSTYYADSVKGRFTISRDNSKNTVYLQMNSLKQEYTAVYYFNADNDGVVWSDPFDFDYWGQGTQVTVSS”, the entry is “low polyreactivity”; as for “QVHLVESGGGLVQAGGSLRLTCAASGFTYPGNAMGWYRQAPGKERELVATINWSGTSTYYADSVKGRFTISRDYAKNTVYLQMNSLKPEDTAVYYCAVDTGGPGYRFDYWGQGTQVTVSS”, “high polyreactivity”; as for “QVHLVESGGGLVQAGGSLRLTCAASGLIFYDNMGWYRQAPGKERELVAAISSSGGSTSYADSVKGRFTISRDNAKNTVYLQMTSLKPVDTAVYYCAADSYPAYLGFVGFDYWGKGTQVTVSS”, “low polyreactivity”. On to “QVHLVESGGGLVQAGGSLRLTCAASGRIFTSYVMGRSRQAPGQVRDLVAAITRSGGSTYYADSVKGRFTISRDNAKNTVYLQMNSLKPEDTAVYYCNALTRRQNGGEGGGYWGQGTHVTVSS”, for which the “polyreactivity (PSR sort gate)” value is given as “high polyreactivity”.

Regarding “QVHLVESGGGLVQAGGSLRLTCAASGSIFLWNAMGWYRQAPGTEREVVAAITWRGGSTYYADSVKGRFTISRDNEKYTVYLQMNSLKPEDTAVYYCAADSYDWMDYWGQGTQVTVSS”, the “polyreactivity (PSR sort gate)” value was “low polyreactivity”. For “QVHLVESGGGLVQAGGSLRLTCAASGSILAYNAMGWYRQAPGKERELVAAIRLSGGSTYYADSVKGRFTISRDNAKNTVYLQMNSLKPEDTAVYYCARRYYRYDTRKYNYWGQGTKVTVSS”, the “polyreactivity (PSR sort gate)” value is “high polyreactivity”. For “QVHLVESGGGLVQAGGTLRLSCAATGRTIYDNAMGWYRQAPGKESELVAVISRSGSTYYADSVKGRFTISRDNAKNSVYLQMNSLKPEDNAVYYCARRGVWGVTYSRLYHWGQGTQVTVSS”, the “polyreactivity (PSR sort gate)” value is reported as “high polyreactivity”. As for “QVHLVESGGGLVQAGRSLRLSCAASGRIFSRYAMGGSRQAPGKERELVAVISRSGADTYYADSVKGRFTISRDNAKTTVYLQMNSLKPEDSAVYSCNAYSARRPHPMGYDYWGQCTQVTVSS”, the “polyreactivity (PSR sort gate)” value is recorded as “high polyreactivity”. The entry for “QVHLVESGGGLVQAGVSLRLSCAASGSTFDYYAMGWYIQAPGTERELVAGITGGGSTYYADSVKGRFTISRDNAKNTVYLQMNSLKPEDTAVYYCNAGPAQRYDYWGQGTQVTVSS” is “low polyreactivity”; for “QVHLVESGGGLVQAGVSLRLSCAASGSTFRRNAMGWYRQEPGKERELVAAISTSGGTTYYADSVKGRFTISRDNAKNTVYLEMNSLKPEDTAVYYCNADVYVWNYKYYSSGQGTQVTVSS” it is “high polyreactivity”; for “QVHLVESGGRLVKAGGSLRLSCPASGYITTKYAMGWYRQAPGKEMELVAAIRYSGTSTYYADSVKGRFTISRDNATNTVYLQMNSLKPEDTAVYYCNTRRYVRTTKYDYWGQGTQVTVSS” it is “high polyreactivity”. Regarding “QVHLVESGGRLVQAGGSLRLSSAASGSIFVKNAMGWYRQAPGKERELVATISSGGSTYYADSVKGRFTISRDNAKNTVYLQMNSLKPEDTAVYYSNTASYVSWYVHYYYWGVGTQVTVSS”, the “polyreactivity (PSR sort gate)” value is recorded as “low polyreactivity”. As for “QVHLVESGGVLLQAGGSLRLSCAASGFIFKWNAMGWYRQAPGKERELVAAISWHGGSTNYADSVKGRFTISRDNAKNTVYLQMNSLKPEDTAVYYCAKQQSPYYPSTLDYWGQGTQVTVSS”, the “polyreactivity (PSR sort gate)” value is listed as “high polyreactivity”. “QVHLVESGGWLVQAGGSLRLSCAASGRTFHVYAMGWYRQAPGKERELVAAITWSGDSTYYADSVKGRFTISRDNAKNTVYLQMNSLKPEDTAVYYCAASQFWKYDYWGQGTQVTVSS”: the “polyreactivity (PSR sort gate)” value is listed as “low polyreactivity”. On to “QVHLVESGRGLFQAGGSLRLSCAASGSIFGYNAMGWYRQAPGKERELVAAITWRGGSTYYADSVKGRFTISRDNAKNTVYLQMNSLKPEDTAVYDCAAYVYQEYDYWGQGTQVTVSS”, for which the “polyreactivity (PSR sort gate)” value is “high polyreactivity”. For the sequence “QVHLVESGRGLFQAGGSLRLSCAASGYTFGPYDMGGYRQAPGKERELVAGITLSGGITYYADSVKGRFTISRDNAKNTVYLQMNSLKPQDTAVSYCAAAFYVSYSVIYEYWGHGTQVTVSS”, the “polyreactivity (PSR sort gate)” value is recorded as “high polyreactivity”. For the sequence “QVHLVESGVGLVQAGGSLRLRCAASGRTLYYYAMGWYRQAPGKQSELVAAINSGGSTKYADSVKGRFTISRDNAKNTVYLQMHSLKPEDTAVYFCAARGYIRGGYYWGQGTQVTVSS”, the “polyreactivity (PSR sort gate)” value is “high polyreactivity”.

On to “QVHLVESRGGLLQAGGSLRLSCAASVYIFYYYAMGWYRQAPGKEREFVAAITSGDSTYADSVKGRFTISRDNAKNTVYLQMYSLKPEDTAVYYCAAESYFFSPRTREKFDSWGQGTQVTVSS”, for which the “polyreactivity (PSR sort gate)” value was “low polyreactivity”.

The values above are taken from the nanobody polyreactivity screen of Harvey et al. (2022).
